Assay results as given in US20120058120A1, “Targets for Growth Factor Signalling and Methods of Therapy” (priority 2009, published 2012).

B1: factor XIII (FXIII) (protein)
chain: SETSRTAFGGRRAVPPNNSNAAEDDLPTVELQGVVPRGVNLQEFLNVTSVHLFKERWDTNKVDHHTDKYENNKLIVRRGQSFYVQIDFSRPYDPRRDLFRVEYVIGRYPQENKGTYIPVPIVSELQSGKWGAKIVMREDRSVRLSIQSSPKCIVGKFRMYVAVWTPYGVLRTSRNPETDTYILFNPWCEDDAVYLDNEKEREEYVLNDIGVIFYGEVNDIKTRSWSYGQFEDGILDTCLYVMDRAQMDLSGRGNPIKVSRVGSAMVNAKDDEGVLVGSWDNIYAYGVPPSAWTGSVDILLEYRSSENPVRYGQCWVFAGVFNTFLRCLGIPARIVTNYFSAHDNDANLQMDIFLEEDGNVNSKLTKDSVWNYHCWNEAWMTRPDLPVGFGGWQAVDSTPQENSDGMYRCGPASVQAIKHGHVCFQFDAPFVFAEVNSDLIYITAKKDGTHVVENVDATHIGKLIVTKQIGGDGMMDITDTYKFQEGQEEERLALETALMYGAKKPLNTEGVMKSRSNVDMDFEVENAVLGKDFKLSITFRNNSHNRYTITAYLSANITFYTGVPKAEFKKETFDVTLEPLSFKKEAVLIQAGEYMGQLLEQASLHFFVTARINETRDVLAKQKSTVLTIPEIIIKVRGTQVVGSDMTVTVEFTNPLKETLRNVWVHLDGPGVTRPMKKMFREIRPNSTVQWEEVCRPWVSGHRKLIASMSSDSLRHVYGELDVQIQRRPSM

Legend:
FXIII = biological target: T1, FXIII (Homo sapiens, UniProt P00488); assay: IGF-I incubated with FXIII and PEG functionalized with Q- or K-donor TG substrate peptide, IGF-I Western blot; format: biochemical; conditions: after 1 h; Q-donor vs K-donor PEG
T1 sequence (P00488 1-732): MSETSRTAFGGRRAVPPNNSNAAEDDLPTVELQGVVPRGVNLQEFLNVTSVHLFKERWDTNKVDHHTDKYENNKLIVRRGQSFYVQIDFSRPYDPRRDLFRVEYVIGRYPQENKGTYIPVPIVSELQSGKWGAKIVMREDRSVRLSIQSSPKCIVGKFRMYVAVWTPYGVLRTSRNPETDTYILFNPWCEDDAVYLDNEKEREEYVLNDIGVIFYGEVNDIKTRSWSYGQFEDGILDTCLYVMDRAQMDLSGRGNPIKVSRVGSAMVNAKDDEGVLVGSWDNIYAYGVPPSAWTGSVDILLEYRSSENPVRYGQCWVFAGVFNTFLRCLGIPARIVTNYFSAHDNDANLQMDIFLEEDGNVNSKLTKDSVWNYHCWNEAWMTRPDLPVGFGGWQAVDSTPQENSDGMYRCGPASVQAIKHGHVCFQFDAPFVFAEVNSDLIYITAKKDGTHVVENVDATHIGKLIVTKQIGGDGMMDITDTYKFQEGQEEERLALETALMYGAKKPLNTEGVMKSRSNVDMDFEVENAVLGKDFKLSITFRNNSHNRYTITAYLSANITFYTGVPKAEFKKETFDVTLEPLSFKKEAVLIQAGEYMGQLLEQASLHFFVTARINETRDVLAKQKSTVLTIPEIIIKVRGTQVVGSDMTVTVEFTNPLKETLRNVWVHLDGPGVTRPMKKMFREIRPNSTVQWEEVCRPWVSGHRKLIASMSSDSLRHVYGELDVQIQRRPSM
Experimental: FIG. 1 (a) IGF-I Western blot after reaction for 60 minutes with FXIII and PEG derivatized with a glutamine (left lane) or lysine FXIII substrate (right lane). […] (b) 3D structure of IGF-I, with the putative FXIII site at the D domain shown relative to residues identified as important for receptor binding.
In the present experiments, IGF-I was incubated with FXIII and PEG functionalized with either a glutamine (Q)- or lysine (K)-donor TG substrate peptide.

TG2 [1] = biological target: T2, TG2 (Homo sapiens, UniProt P21980); assay: Reaction of IGF-I with TG2, with or without the Gln-donor substrate glucagon; format: biochemical
T2 sequence (P21980 1-687): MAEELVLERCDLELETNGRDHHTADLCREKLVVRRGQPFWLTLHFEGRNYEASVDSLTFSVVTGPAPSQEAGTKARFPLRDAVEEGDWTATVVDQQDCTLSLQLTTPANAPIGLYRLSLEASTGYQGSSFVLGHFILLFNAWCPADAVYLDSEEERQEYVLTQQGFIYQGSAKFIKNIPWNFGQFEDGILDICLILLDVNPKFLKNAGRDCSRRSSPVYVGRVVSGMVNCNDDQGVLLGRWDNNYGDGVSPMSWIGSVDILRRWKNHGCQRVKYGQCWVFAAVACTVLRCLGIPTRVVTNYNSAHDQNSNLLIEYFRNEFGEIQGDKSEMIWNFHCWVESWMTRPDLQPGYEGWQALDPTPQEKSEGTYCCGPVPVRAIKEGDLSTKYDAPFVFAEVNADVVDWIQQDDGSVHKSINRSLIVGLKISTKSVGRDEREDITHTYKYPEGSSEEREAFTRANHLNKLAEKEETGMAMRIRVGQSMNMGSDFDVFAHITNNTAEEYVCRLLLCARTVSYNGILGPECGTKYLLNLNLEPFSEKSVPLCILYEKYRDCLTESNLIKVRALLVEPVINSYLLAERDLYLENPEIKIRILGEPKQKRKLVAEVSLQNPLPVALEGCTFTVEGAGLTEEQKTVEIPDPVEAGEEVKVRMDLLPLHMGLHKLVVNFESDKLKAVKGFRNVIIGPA
Excerpt: FIG. 4 Reaction of IGF-I with glucagon catalysed by TG2. Lane 1: IGF-I control; 2: IGF-I+TG2; 3: TG2 control; 4: Gn control; 5: IGF-I+Gn; 6: TG2+Gn; 7: TG2+Gn+IGF-I. (Gn=glucagon)
In order to confirm this finding, we repeated this experiment using TG2 rather than FXIII, and the known TG2 Gln-donor substrate glucagon (Gn) as a probe (FIG. 4). […] The large band >75 kDa in lane 2 is apparently due to the formation of covalent complexes between IGF-I and TG2 itself; polymerization of IGF-I is also evident. Reaction of IGF-I with Gn (lane 7) also produced polymeric species. A band of MW consistent with (IGF-I)1Gn1 is indicated by an arrow.

TG2 [2] = biological target: T2, TG2; assay: TG2-catalysed crosslinking of IGF-I to recombinant extracellular domain of IGF1R, IGF-I Western blot; format: biochemical; conditions: TG2 0.70 μM, IGF-I 25 μg/mL, IGF1R 25 μg/mL, 1 hour, 1 mM CaCl2, pH 7.5
Experimental: TG2 (0.70 μM) was reacted with IGF-I (25 μg/mL) and/or recombinant extracellular domain of IGF1R (25 μg/mL; commercially available from R&D Systems) for 1 hour in the presence of 1 mM CaCl2, pH 7.5. At this point, the reaction was stopped by the addition of SDS-PAGE loading buffer. Samples were run through a 4%-12% SDS-PAGE gel, transferred to a PVDF membrane and probed for IGF-I using a goat anti-human IGF-I primary (1:5000 dilution) and HRP-conjugated rabbit anti-goat secondary (1:10,000), and visualised using chemiluminescence.
For it to be able to do this, both IGF-I and the IGF1R would have to be transglutaminase substrates. Because TG2 catalyses the formation of an isopeptide bond which is essentially as stable as a peptide backbone bond, the complex formed will not be broken apart under reducing SDS-PAGE conditions (whereas disulfide and non-covalent interactions will be broken).
So, in this assay we reacted IGF-I and the soluble recombinant extracellular portion of the receptor with TG2, and probed for where IGF-I ended up using a standard Western blot approach. The “smoking gun” for a reaction would be staining for IGF-I appearing at a molecular weight corresponding to […]. […]

[3] = biological target: insulin-like growth factor I (IGF-I), P05019
insulin-like growth factor I (IGF-I), P05019, sequence (P05019 whole entry, looked up): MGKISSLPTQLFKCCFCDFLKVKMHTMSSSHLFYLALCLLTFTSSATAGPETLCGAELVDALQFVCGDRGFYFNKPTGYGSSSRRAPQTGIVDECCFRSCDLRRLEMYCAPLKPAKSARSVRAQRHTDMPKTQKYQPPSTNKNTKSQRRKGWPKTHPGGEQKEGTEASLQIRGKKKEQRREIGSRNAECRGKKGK

Molecule	incorporation of IGF-I into TG substrate-functionalized PEG (FXIII)	products of reaction of IGF-I alone with TG2 (TG2 [1]; lane 2, IGF-I+TG2)	products of reaction of IGF-I with glucagon catalysed by TG2 (TG2 [1]; lane 7, TG2+Gn+IGF-I)	crosslinking of IGF-I to IGF1R by TG2 (TG2 [2])	Western blot for IGF-I after 1 h reaction with FXIII and PEG carrying a glutamine- or lysine-donor TG substrate peptide [3]
IGF-I: insulin-like growth factor I, tested as transglutaminase substrate	quantitatively incorporated into the Q-donor, but not the K-donor PEG	produced a series of bands corresponding to IGF-I oligomers	produced a wide range of molecular weight species	TG2 recognises sites on both the IGF1R and IGF-I, and is able to bind the two together	–
B1	–	–	–	–	after 1 h IGF-I was quantitatively incorporated into the Q-donor, but not the K-donor PEG
